The target of assay [1] is D3H44 light chain S131E, N-terminal HA or FLAG tag. The experiment in a line: LCCA, SPR of light chain tags, L1:L2 DNA 1:3 norm. to 1:1; other light chain m17.
Assay [2] addresses D3H44 light chain Q124E_T178E, N-terminal HA or FLAG tag. The assay is described as above.
Assay [3] has as its target D3H44 light chain Q124E_S131T_T178Y_T180E, N-terminal HA or FLAG tag. Description: LCCA, SPR of light chain tags, L1:L2 DNA 1:9 norm. to 1:1; other light chain m14.
Assay [4] deals with D3H44 light chain Q124R_T178R, N-terminal HA or FLAG tag. Description: LCCA, SPR of light chain tags, L1:L2 DNA 1:9 norm. to 1:1; other light chain m15.
Assay [5] shares this target. Description: LCCA, SPR of light chain tags, L1:L2 DNA 1:3 norm. to 1:1; other light chain m20.
The target of assay [6] is D3H44 light chain Q124E_S131T_T178F_T180E, N-terminal HA or FLAG tag. The experiment in a line: LCCA, SPR of light chain tags, L1:L2 DNA 1:3 norm. to 1:1; other light chain m14.
Assay [7] has as its target D3H44 light chain S131E, N-terminal HA or FLAG tag. The description is as above.
Assay [8] concerns the target D3H44 light chain Q124E_S131T_T178Y_T180E, N-terminal HA or FLAG tag. The description is as above.
The target in assay [9] is D3H44 light chain Q124R_Q160K_T178R, N-terminal HA or FLAG tag. The experiment in a line: LCCA, SPR of light chain tags, L1:L2 DNA 1:3 norm. to 1:1; other light chain m26.
The target is the same in assay [10]. Description: LCCA, SPR of light chain tags, L1:L2 DNA 1:3 norm. to 1:1; other light chain m19.
For assay [11], the target named is D3H44 light chain Q124R_T178R, N-terminal HA or FLAG tag. The assay is described as above.
The target is the same in assay [12]. Description: LCCA, SPR of light chain tags, L1:L2 DNA 1:3 norm. to 1:1; other light chain m15.
The target in assay [13] is D3H44 light chain Q124R_Q160K_T178R, N-terminal HA or FLAG tag. The experiment in a line: LCCA, SPR of light chain tags, L1:L2 DNA 1:3 norm. to 1:1; other light chain m23.
For assay [14], the target named is D3H44 light chain Q124E_S176L_T180E, N-terminal HA or FLAG tag. The experiment in a line: LCCA, SPR of light chain tags, L1:L2 DNA 1:3 norm. to 1:1; other light chain m17.
Assay [15] addresses D3H44 light chain Q124E_T178E_T180E, N-terminal HA or FLAG tag. The assay is described as above.
Assay [16] has as its target D3H44 light chain Q124E_Q160E_T178E, N-terminal HA or FLAG tag. Described as above.
Assay [17] concerns the target D3H44 light chain Q124E_T178E_T180E, N-terminal HA or FLAG tag. Description: LCCA, SPR of light chain tags, L1:L2 DNA 1:9 norm. to 1:1; other light chain m17.
The target of assay [18] is D3H44 light chain Q124R_Q160K_T178R, N-terminal HA or FLAG tag. The experiment in a line: LCCA, SPR of light chain tags, L1:L2 DNA 1:9 norm. to 1:1; other light chain m21.
The target in assay [19] is D3H44 light chain Q124E_S176L_T180E, N-terminal HA or FLAG tag. The experiment in a line: LCCA, SPR of light chain tags, L1:L2 DNA 1:9 norm. to 1:1; other light chain m14.
The target in assay [20] is D3H44 light chain Q124R_Q160K_T178R, N-terminal HA or FLAG tag. Description: LCCA, SPR of light chain tags, L1:L2 DNA 1:3 norm. to 1:1; other light chain m21.
For assay [21], the target named is D3H44 light chain Q124E_S176L_T180E, N-terminal HA or FLAG tag. The experiment in a line: LCCA, SPR of light chain tags, L1:L2 DNA 1:3 norm. to 1:1; other light chain m14.
For assay [22], the target named is D3H44 light chain Q124R_T178R, N-terminal HA or FLAG tag. Description: LCCA, SPR of light chain tags, L1:L2 DNA 1:9 norm. to 1:1; other light chain m16.
For assay [23], the target named is D3H44 light chain Q124R_Q160K_T178R, N-terminal HA or FLAG tag. The experiment in a line: LCCA, SPR of light chain tags, L1:L2 DNA 1:3 norm. to 1:1; other light chain m16.
Assay [24] addresses D3H44 light chain Q124R_T178R, N-terminal HA or FLAG tag. Described as above.
The target in assay [25] is D3H44 light chain Q124E_S131T_T178Y_T180E, N-terminal HA or FLAG tag. The experiment in a line: LCCA, SPR of light chain tags, L1:L2 DNA 1:3 norm. to 1:1; other light chain m17.
In assay [26] the target is D3H44 light chain Q124R_Q160K_T178R, N-terminal HA or FLAG tag. The experiment in a line: LCCA, SPR of light chain tags, L1:L2 DNA 1:3 norm. to 1:1; other light chain m15.
Assay [27] concerns the target D3H44 light chain Q124E_V133E, N-terminal HA or FLAG tag. Description: LCCA, SPR of light chain tags, L1:L2 DNA 1:3 norm. to 1:1; other light chain m17.
Assay [28] has the same target. The experiment in a line: LCCA, SPR of light chain tags, L1:L2 DNA 1:9 norm. to 1:1; other light chain m17.
Assay [29] concerns the target D3H44 light chain Q124R_Q160K_T178R, N-terminal HA or FLAG tag. The experiment in a line: LCCA, SPR of light chain tags, L1:L2 DNA 1:9 norm. to 1:1; other light chain m18.
Assay [30] has the same target. The experiment in a line: LCCA, SPR of light chain tags, L1:L2 DNA 1:3 norm. to 1:1; other light chain m18.
The target of assay [31] is D3H44 light chain Q124E_V133D, N-terminal HA or FLAG tag. The experiment in a line: LCCA, SPR of light chain tags, L1:L2 DNA 1:3 norm. to 1:1; other light chain m24.
For assay [32], the target named is D3H44 light chain Q124R, N-terminal HA or FLAG tag. The experiment in a line: LCCA, SPR of light chain tags, L1:L2 DNA 1:3 norm. to 1:1; other light chain m28.
Assay [33] has as its target D3H44 light chain Q124E_V133D, N-terminal HA or FLAG tag. Description: LCCA, SPR of light chain tags, L1:L2 DNA 1:9 norm. to 1:1; other light chain m24.
The target of assay [34] is D3H44 light chain Q124R, N-terminal HA or FLAG tag. Description: LCCA, SPR of light chain tags, L1:L2 DNA 1:9 norm. to 1:1; other light chain m28.

For the substance “D3H44 Fab heavy chain S186K, ABD2-His6 tagged”, the H2L2:H2L1 normalized median ratio in [1] is 99%; in assay [2] it was 98%; in assay [3] it was 89%; in [4], 11%; in assay [5], 4%; in assay [6] it was 96%. For the same substance, the H2L2:H2L1 normalized median ratio in [7] is 98%; in assay [8], 95%; in assay [9], 2%; in [10] it was 1%; in assay [11], 2%; in assay [12], 5%.

As for “D3H44 Fab heavy chain Q179R, ABD2-His6 tagged”, the H2L2:H2L1 normalized median ratio in assay [13] is 3%; in assay [14], 98%; in assay [15], 93%; in [16], 97%; in [2], 97%; in assay [17], 92%. The H2L2:H2L1 normalized median ratio in assay [18] turned out to be 8%; in [19] it was 85%; in [3], 91%; in assay [20] it was 7%; in assay [4], 9%; in assay [5] it was 4%. The H2L2:H2L1 normalized median ratio in [21] stood at 93%; in assay [6], 96%; in [8], 94%; in assay [9] it was 3%; in assay [22], 15%; in [12], 6%. The H2L2:H2L1 normalized median ratio stood at 2% in [23] and 7% in assay [24].

“D3H44 Fab heavy chain Q179K, ABD2-His6 tagged”: the H2L2:H2L1 normalized median ratio came to 2% in assay [13]; 94% in assay [15]; 98% in assay [16]; 95% in assay [25]; 6% in assay [20]; 6% in assay [5]. Also, the H2L2:H2L1 normalized median ratio in assay [6] was 94%; in assay [8], 93%; in assay [26] it was 5%; in assay [12] it was 7%.

Turning to “D3H44 Fab heavy chain L143E_K145T, ABD2-His6 tagged”, the H1L1:H1L2 normalized median ratio in assay [13] was determined as 59%; in assay [15], 18%; in [1], 53%; in assay [16] it was 41%; in assay [27] it was 21%; in assay [2], 41%. For the same substance, the H1L1:H1L2 normalized median ratio was determined as 19% in [17]; 13% in [28]; 81% in [18]; 82% in assay [20]; 37% in assay [29]; 54% in assay [7]. Also, the H1L1:H1L2 normalized median ratio in [30] was 79%; in assay [9] it was 59%; in assay [10], 47%; in assay [11], 46%. The H1L1:H1L2 normalized median scalar value ln(r1/f1) was 0.37 in assay [13]; 1.44 in [18]; 1.52 in [20]; 1.35 in assay [30]; 0.36 in assay [9]; -0.14 in assay [10]. This substance came in with an H1L1:H1L2 normalized median scalar value ln(r1/f1) in assay [11] of -0.16.

As for “D3H44 Fab heavy chain L143K_D146G, ABD2-His6 tagged”, the H2L2:H2L1 normalized median ratio was determined as 91% in assay [31], 9% in assay [32], 88% in assay [33] and 12% in assay [34].

These data come from patent US11306156.
